# Patent US7005285
# B1: human p21-activated kinase 5 (PAK5), full length, expressed in 293 cells from pcDNA3.1 myc-his (protein)
# chain: MFGKKKKKIEISGPSNFEHRVHTGFDPQEQKFTGLPQQWHSLLADTANRPKPMVDPSCITPIQLAPMKTIVRGNKPCKETSINGLLEDFDNISVTRSNSLRKESPPTPDQGASSHGPGHAEENGFITFSQYSSESDTTADYTTEKYREKSLYGDDLDPYYRGSHAAKQNGHVMKMKHGEAYYSEVKPLKSDFARFSADYHSHLDSLSKPSEYSDLKWEYQRASSSSPLDYSFQFTPSRTAGTSGCSKESLAYSESEWGPSLDDYDRRPKSSYLNQTSPQPTMRQRSRSGSGLQEPMMPFGASAFKTHPQGHSYNSYTYPRLSEPTMCIPKVDYDRAQMVLSPPLSGSDTYPRGPAKLPQSQSKSGYSSSSHQYPSGYHKATLYHHPSLQSSSQYISTASYLSSLSLSSSTYPPPSWGSSSDQQPSRVSHEQFRAALQLVVSPGDPREYLANFIKIGEGSTGIVCIGTEKHTGKQVAVKKMDLRKQQRRELLFNEVVIMRDYHHDNVVDMYSSYLVGDELWVVMEFLEGGALTDIVTHTRMNEEQIATVCLSVLRALSYLHNQGVIHRDIKSDSILLTSDGRIKLSDFGFCAQVSKEVPKRKSLVGTPYWMAPELISRLPYGTEVDIWSLGIMVIEMIDGEPPYFNEPPLQAMRRIRDSLPPRVKDLHKVSSVLRGFLDLMLVREPSQRATAQELLGHPFLKLAGPPSCIVPLMRQYRHH
# Legend:
# [1] = target: myelin basic protein
# [2] = target: histone H1
protein,measurement,setting,value
B1,"kinase assay: incorporation of 32P from [gamma-32P]ATP into substrate, SDS gel and phosphoimager",[1],PAK5 is able to phosphorylate generic kinase substrates such as myelin basic protein and histone H1
same,"kinase assay: incorporation of 32P from [gamma-32P]ATP into substrate, SDS gel and phosphoimager",[2],PAK5 is able to phosphorylate generic kinase substrates such as myelin basic protein and histone H1
